# Patent US20210115102
# Hepsin, recombinant human, sequence (chain, as listed by the source): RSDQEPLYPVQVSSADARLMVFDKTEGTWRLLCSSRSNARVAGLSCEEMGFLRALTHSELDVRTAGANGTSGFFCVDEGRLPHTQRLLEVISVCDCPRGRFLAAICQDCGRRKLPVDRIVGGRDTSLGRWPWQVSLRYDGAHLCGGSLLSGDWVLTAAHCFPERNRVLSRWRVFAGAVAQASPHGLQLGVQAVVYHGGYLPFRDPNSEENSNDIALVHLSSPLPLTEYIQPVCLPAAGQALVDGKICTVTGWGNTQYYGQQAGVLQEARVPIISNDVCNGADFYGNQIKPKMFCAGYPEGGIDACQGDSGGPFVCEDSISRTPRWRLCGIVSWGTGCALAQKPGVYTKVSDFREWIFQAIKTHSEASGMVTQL
# Factor Xa, recombinant human, sequence (chain): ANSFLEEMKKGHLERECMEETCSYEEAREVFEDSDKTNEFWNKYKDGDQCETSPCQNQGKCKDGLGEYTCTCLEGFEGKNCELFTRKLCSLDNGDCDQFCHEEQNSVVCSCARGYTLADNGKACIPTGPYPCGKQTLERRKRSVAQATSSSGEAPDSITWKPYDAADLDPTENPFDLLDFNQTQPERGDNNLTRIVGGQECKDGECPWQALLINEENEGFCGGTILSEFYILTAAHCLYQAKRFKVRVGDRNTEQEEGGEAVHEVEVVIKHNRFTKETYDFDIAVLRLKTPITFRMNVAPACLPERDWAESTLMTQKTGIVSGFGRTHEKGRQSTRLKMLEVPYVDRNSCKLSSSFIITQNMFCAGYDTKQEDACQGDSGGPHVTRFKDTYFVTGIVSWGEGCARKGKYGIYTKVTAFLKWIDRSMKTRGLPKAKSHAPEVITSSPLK
# ALU30-19, sequence (chain, as listed by the source): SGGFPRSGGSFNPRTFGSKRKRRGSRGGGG
# ALU30-17, sequence (chain, as listed by the source): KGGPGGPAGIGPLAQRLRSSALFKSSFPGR
# ALU30-9, sequence (chain, as listed by the source): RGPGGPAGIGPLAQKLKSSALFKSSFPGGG
# ALU30-14, sequence (chain, as listed by the source): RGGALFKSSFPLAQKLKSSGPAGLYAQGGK
# ALU30-12, sequence (chain, as listed by the source): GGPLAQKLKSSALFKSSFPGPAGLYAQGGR
# ALU30-18, sequence (chain, as listed by the source): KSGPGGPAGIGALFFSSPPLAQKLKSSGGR
# ALU30-15, sequence (chain, as listed by the source): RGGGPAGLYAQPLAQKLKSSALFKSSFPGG
# ALU30-8, sequence (chain, as listed by the source): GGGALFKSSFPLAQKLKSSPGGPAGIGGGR
# ALU30-7, sequence (chain, as listed by the source): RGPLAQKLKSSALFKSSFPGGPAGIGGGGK
# ALU30-5, sequence (chain, as listed by the source): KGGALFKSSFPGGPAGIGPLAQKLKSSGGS
# ALU30-11, sequence (chain, as listed by the source): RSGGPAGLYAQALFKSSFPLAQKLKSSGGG
# ALU30-1, sequence (chain, as listed by the source): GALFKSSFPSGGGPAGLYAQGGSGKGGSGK
# ALU30-6, sequence (chain, as listed by the source): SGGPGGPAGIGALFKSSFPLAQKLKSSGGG
# ALU30-10, sequence (chain, as listed by the source): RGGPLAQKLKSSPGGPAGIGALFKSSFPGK
# ALU30-16, sequence (chain, as listed by the source): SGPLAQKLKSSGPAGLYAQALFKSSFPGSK
# ALU30-13, sequence (chain, as listed by the source): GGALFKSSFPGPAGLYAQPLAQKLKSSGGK
substance,measurement,setting,value
"Hepsin, recombinant human",apparent catalytic efficiency,ALU30-8,"The authentic peptide Alu30-19, as well as the top cleaved peptides Alu30-8,-9, -12, and -14 all had apparent catalytic efficiencies on the same order of 10^5 M^-1s^-1."
same,apparent catalytic efficiency,ALU30-9,"The authentic peptide Alu30-19, as well as the top cleaved peptides Alu30-8,-9, -12, and -14 all had apparent catalytic efficiencies on the same order of 10^5 M^-1s^-1."
same,cleavage efficiency of 30-mer library peptides,ALU30-15,it had slightly higher hepsin susceptibility
same,apparent catalytic efficiency,ALU30-14,"The authentic peptide Alu30-19, as well as the top cleaved peptides Alu30-8,-9, -12, and -14 all had apparent catalytic efficiencies on the same order of 10^5 M^-1s^-1."
same,apparent catalytic efficiency,ALU30-12,"The authentic peptide Alu30-19, as well as the top cleaved peptides Alu30-8,-9, -12, and -14 all had apparent catalytic efficiencies on the same order of 10^5 M^-1s^-1."
same,30-mer substrate degradation (MSP-MS),ALU30-19,Alu30-19 was cleaved at all three motifs within the first 15 min of the reaction
same,apparent catalytic efficiency,ALU30-19,"The authentic peptide Alu30-19, as well as the top cleaved peptides Alu30-8,-9, -12, and -14 all had apparent catalytic efficiencies on the same order of 10^5 M^-1s^-1."
same,30-mer substrate degradation (MSP-MS),ALU30-17,The ADAM17_1 motif was less efficiently cleaved than ADAM17_2
same,30-mer substrate degradation (MSP-MS),ALU30-18,the alternate CTSL1_2 motif was also cleaved at a much slower rate than CTSL1_1
"Factor Xa, recombinant human",30-mer substrate degradation (MSP-MS),ALU30-8,all other peptides bearing a CTSL1_1 motif were cleaved by Factor Xa at either ALF|KSSFP (SEQ ID NO: 198) or ALFKS|SFP (SEQ ID NO: 198)
same,30-mer substrate degradation (MSP-MS),ALU30-9,all other peptides bearing a CTSL1_1 motif were cleaved by Factor Xa at either ALF|KSSFP (SEQ ID NO: 198) or ALFKS|SFP (SEQ ID NO: 198)
same,30-mer substrate degradation (MSP-MS),ALU30-13,all other peptides bearing a CTSL1_1 motif were cleaved by Factor Xa at either ALF|KSSFP (SEQ ID NO: 198) or ALFKS|SFP (SEQ ID NO: 198)
same,30-mer substrate degradation (MSP-MS),ALU30-15,all other peptides bearing a CTSL1_1 motif were cleaved by Factor Xa at either ALF|KSSFP (SEQ ID NO: 198) or ALFKS|SFP (SEQ ID NO: 198)
same,30-mer substrate degradation (MSP-MS),ALU30-7,all other peptides bearing a CTSL1_1 motif were cleaved by Factor Xa at either ALF|KSSFP (SEQ ID NO: 198) or ALFKS|SFP (SEQ ID NO: 198)
same,30-mer substrate degradation (MSP-MS),ALU30-10,all other peptides bearing a CTSL1_1 motif were cleaved by Factor Xa at either ALF|KSSFP (SEQ ID NO: 198) or ALFKS|SFP (SEQ ID NO: 198)
same,30-mer substrate degradation (MSP-MS),ALU30-6,all other peptides bearing a CTSL1_1 motif were cleaved by Factor Xa at either ALF|KSSFP (SEQ ID NO: 198) or ALFKS|SFP (SEQ ID NO: 198)
same,30-mer substrate degradation (MSP-MS),ALU30-1,all other peptides bearing a CTSL1_1 motif were cleaved by Factor Xa at either ALF|KSSFP (SEQ ID NO: 198) or ALFKS|SFP (SEQ ID NO: 198)
same,30-mer substrate degradation (MSP-MS),ALU30-14,all other peptides bearing a CTSL1_1 motif were cleaved by Factor Xa at either ALF|KSSFP (SEQ ID NO: 198) or ALFKS|SFP (SEQ ID NO: 198)
same,30-mer substrate degradation (MSP-MS),ALU30-5,"the only library peptide with significant cleavage was Alu30-5, cleaved at the CTSL1_1 motif ALFKS|SFP (SEQ ID NO: 198), upstream of a FAPα_1 motif"
same,30-mer substrate degradation (MSP-MS),ALU30-12,all other peptides bearing a CTSL1_1 motif were cleaved by Factor Xa at either ALF|KSSFP (SEQ ID NO: 198) or ALFKS|SFP (SEQ ID NO: 198)
same,30-mer substrate degradation (MSP-MS),ALU30-11,all other peptides bearing a CTSL1_1 motif were cleaved by Factor Xa at either ALF|KSSFP (SEQ ID NO: 198) or ALFKS|SFP (SEQ ID NO: 198)
same,30-mer substrate degradation (MSP-MS),ALU30-16,all other peptides bearing a CTSL1_1 motif were cleaved by Factor Xa at either ALF|KSSFP (SEQ ID NO: 198) or ALFKS|SFP (SEQ ID NO: 198)
same,30-mer substrate degradation (MSP-MS),ALU30-19,Peptide Alu30-19 with this motif was completely degraded before the 5 min time point.
same,30-mer substrate degradation (MSP-MS),ALU30-17,all other peptides bearing a CTSL1_1 motif were cleaved by Factor Xa at either ALF|KSSFP (SEQ ID NO: 198) or ALFKS|SFP (SEQ ID NO: 198)
same,30-mer substrate degradation (MSP-MS),ALU30-18,The peptide with the motif CTSL1_2 was cleaved at the lowest efficiency.
